We go through one substance from US7465787.

The target of this assay is biotinylated soluble single-chain Vb8-Va3 TCR (mouse). As to the kind of experiment: flow cytometry titration of whole yeast cells with biotinylated scTCR, Scatchard analysis; assumes 100% active scTCR. In general terms: In flow cytometry, cells or beads pass a laser one at a time.

One may read the Kd as a measure of binding affinity in units of concentration. For the substance “wt scFv-KJ16 displayed on yeast as Aga2p-HA-scFv-KJ16-c-myc fusion (from UniProt P32781 19-87)”, the Kd was 500 nM.
